Results as given in publication PMC10681739, “High-throughput data and modeling reveal insights into the mechanisms of cooperative DNA-binding by transcription factor proteins”.

Molecular target: RUNX1 (Homo sapiens, UniProt Q01196)
Test: gcPBM; 2 nM RUNX1
Conditions: tags: N-terminal GST (pDEST15), kept (PMC6008103); label: surface-attached array probe

RUNX1, sequence (Q01196 whole entry): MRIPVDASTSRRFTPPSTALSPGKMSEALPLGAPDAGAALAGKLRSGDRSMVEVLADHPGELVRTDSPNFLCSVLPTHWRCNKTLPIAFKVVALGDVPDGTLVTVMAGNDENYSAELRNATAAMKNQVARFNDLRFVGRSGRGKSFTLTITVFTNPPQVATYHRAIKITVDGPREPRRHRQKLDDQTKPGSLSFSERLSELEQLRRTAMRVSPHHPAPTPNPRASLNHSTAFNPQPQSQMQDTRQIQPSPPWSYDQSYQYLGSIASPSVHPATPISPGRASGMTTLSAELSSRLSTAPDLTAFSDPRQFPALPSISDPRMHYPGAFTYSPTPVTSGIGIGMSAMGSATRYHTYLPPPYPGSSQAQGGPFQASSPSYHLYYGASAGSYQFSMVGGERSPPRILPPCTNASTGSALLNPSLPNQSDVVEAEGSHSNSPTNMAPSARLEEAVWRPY

B1: Table S3 B row 3962 (dsDNA)
DNA 1: GCCCCTCTGCGGTCGCAGCCCCGCCGGGAGTGTGGC
DNA 2: GCCACACTCCCGGCGGGGCTGCGACCGCAGAGGGGC
Q: With B1 as the binder, how does the binding signal read?
A: 4660 PBM fluorescence, median of replicate spots

B2: Table S3 B row 2863 (dsDNA)
DNA 1: CCGCCCTGTGGTTTTGGAGCCCTTGCTCCCGGCGCA
DNA 2: TGCGCCGGGAGCAAGGGCTCCAAAACCACAGGGCGG
Q: With B2 as the binder, how does the binding signal read?
A: 4640 PBM fluorescence, median of replicate spots

B3: Table S3 B row 1458 (dsDNA)
DNA 1: TTCTCCACTGCCTTCTTTACCTCACCTACCACATAA
DNA 2: TTATGTGGTAGGTGAGGTAAAGAAGGCAGTGGAGAA
Q: Which binding signal does the source give for B3 here?
A: 5560 PBM fluorescence, median of replicate spots

B4: Table S3 B row 1201 (dsDNA)
DNA 1: GTGGGCTGTGGTTAGGAGACATGAAGGAGAATGCCA
DNA 2: TGGCATTCTCCTTCATGTCTCCTAACCACAGCCCAC
Q: Which binding signal does the source give for B4 here?
A: 4150 PBM fluorescence, median of replicate spots

B5: Table S3 B row 905 (dsDNA)
DNA 1: CCTCTGCGGTCTCTGCAGCCGTTTGCATTTGCTGAA
DNA 2: TTCAGCAAATGCAAACGGCTGCAGAGACCGCAGAGG
Q: With B5 as the binder, how does the binding signal read?
A: 4320 PBM fluorescence, median of replicate spots

B6: Table S3 B row 1266 (dsDNA)
DNA 1: AGAAAACCACATTCAATTCTCTTTACACAGGGTGTT
DNA 2: AACACCCTGTGTAAAGAGAATTGAATGTGGTTTTCT
Q: B6 was tested. Which binding signal did it give?
A: 3040 PBM fluorescence, median of replicate spots

B7: Table S3 B row 2775 (dsDNA)
DNA 1: CCTGTTTCGTGCCATCTGCCCTTCCTTTGTGGTCAA
DNA 2: TTGACCACAAAGGAAGGGCAGATGGCACGAAACAGG
Q: How did the binding signal turn out when B7 was run?
A: 2610 PBM fluorescence, median of replicate spots

B8: Table S3 B row 934 (dsDNA)
DNA 1: TCAGAACCGCAGACGTGGCCCTGCGTGGCTTCAGGC
DNA 2: GCCTGAAGCCACGCAGGGCCACGTCTGCGGTTCTGA
Q: With B8 as the binder, how does the binding signal read?
A: 4860 PBM fluorescence, median of replicate spots

B9: Table S3 B row 533 (dsDNA)
DNA 1: AGTTGTGAAACCACAAAACACAGAAAGGAGGTGGTC
DNA 2: GACCACCTCCTTTCTGTGTTTTGTGGTTTCACAACT
Q: Which binding signal does the source give for B9 here?
A: 5640 PBM fluorescence, median of replicate spots

B10: Table S3 B row 4026 (dsDNA)
DNA 1: CCTCCTGTGGTTAGTTCCTGCCCGATCAGGCAGGAG
DNA 2: CTCCTGCCTGATCGGGCAGGAACTAACCACAGGAGG
Q: How did the binding signal turn out when B10 was run?
A: 4260 PBM fluorescence, median of replicate spots

B11: Table S3 B row 878 (dsDNA)
DNA 1: CCCTTTGTGGTCACAAAAACATGTCCTAGTTGAGAT
DNA 2: ATCTCAACTAGGACATGTTTTTGTGACCACAAAGGG
Q: How did the binding signal turn out when B11 was run?
A: 3830 PBM fluorescence, median of replicate spots

B12: Table S3 B row 991 (dsDNA)
DNA 1: TCCCTTACCTTCATGCTGCCACCAAACCACCAAACC
DNA 2: GGTTTGGTGGTTTGGTGGCAGCATGAAGGTAAGGGA
Q: For B12, which binding signal is on record?
A: 2540 PBM fluorescence, median of replicate spots

B13: Table S3 B row 1934 (dsDNA)
DNA 1: TCCTCCCCCAACCGCACCCTCAGCTTCATGTTTCAG
DNA 2: CTGAAACATGAAGCTGAGGGTGCGGTTGGGGGAGGA
Q: Which binding signal does the source give for B13 here?
A: 3950 PBM fluorescence, median of replicate spots

B14: Table S3 B row 2350 (dsDNA)
DNA 1: CCTGTCTTGTGGTTAAGTCAAGGCAGGCAATGCTTT
DNA 2: AAAGCATTGCCTGCCTTGACTTAACCACAAGACAGG
Q: Which binding signal does the source give for B14 here?
A: 5190 PBM fluorescence, median of replicate spots

B15: Table S3 B row 2874 (dsDNA)
DNA 1: TCAGTGCGGTCAGGGAGTCTGTACTGCCTGGATGGC
DNA 2: GCCATCCAGGCAGTACAGACTCCCTGACCGCACTGA
Q: Which binding signal does the source give for B15 here?
A: 5600 PBM fluorescence, median of replicate spots

B16: Table S3 B row 2319 (dsDNA)
DNA 1: CCCCGGCAGAAACCGCACCCCACTCCCCATAGCCAC
DNA 2: GTGGCTATGGGGAGTGGGGTGCGGTTTCTGCCGGGG
Q: How did the binding signal turn out when B16 was run?
A: 4670 PBM fluorescence, median of replicate spots

B17: Table S3 B row 2281 (dsDNA)
DNA 1: ACCCCAAACCCACAAACCCACCTGAAGGAACCAACT
DNA 2: AGTTGGTTCCTTCAGGTGGGTTTGTGGGTTTGGGGT
Q: B17 was tested. Which binding signal did it give?
A: 5110 PBM fluorescence, median of replicate spots

B18: Table S3 B row 2473 (dsDNA)
DNA 1: CCCACCCAGCAAGCCGTCCTAACCACAACAGCCCTC
DNA 2: GAGGGCTGTTGTGGTTAGGACGGCTTGCTGGGTGGG
Q: B18 was tested. Which binding signal did it give?
A: 5020 PBM fluorescence, median of replicate spots

B19: Table S3 B row 1841 (dsDNA)
DNA 1: CTGCCCATCGCGGTTAACTTTTGCGCCTCCTTAAAG
DNA 2: CTTTAAGGAGGCGCAAAAGTTAACCGCGATGGGCAG
Q: How did the binding signal turn out when B19 was run?
A: 3570 PBM fluorescence, median of replicate spots

B20: Table S3 B row 75 (dsDNA)
DNA 1: GCGTCCTTTGCGGTCTTTTGTCCACGTTCGGGTCAA
DNA 2: TTGACCCGAACGTGGACAAAAGACCGCAAAGGACGC
Q: How did the binding signal turn out when B20 was run?
A: 4170 PBM fluorescence, median of replicate spots

B21: Table S3 B row 2615 (dsDNA)
DNA 1: ACCCCCCAACCACAAGGCCCGTTTGCTGCCTCCCCA
DNA 2: TGGGGAGGCAGCAAACGGGCCTTGTGGTTGGGGGGT
Q: For B21, which binding signal is on record?
A: 2690 PBM fluorescence, median of replicate spots

B22: Table S3 B row 2682 (dsDNA)
DNA 1: TGGAAACCACAAGTTATTCCCTGCAAGCCGTAAGCA
DNA 2: TGCTTACGGCTTGCAGGGAATAACTTGTGGTTTCCA
Q: How did the binding signal turn out when B22 was run?
A: 4300 PBM fluorescence, median of replicate spots

B23: Table S3 B row 2453 (dsDNA)
DNA 1: GCCCTGTGGTTTTCTGAGGCCCCCGAGGAGGAGGTG
DNA 2: CACCTCCTCCTCGGGGGCCTCAGAAAACCACAGGGC
Q: For B23, which binding signal is on record?
A: 5060 PBM fluorescence, median of replicate spots

B24: Table S3 B row 1232 (dsDNA)
DNA 1: CTCCTCTGTGGTCAGCCATCAATTCATCCCAGCCCG
DNA 2: CGGGCTGGGATGAATTGATGGCTGACCACAGAGGAG
Q: With B24 as the binder, how does the binding signal read?
A: 4200 PBM fluorescence, median of replicate spots

B25: Table S3 B row 3703 (dsDNA)
DNA 1: GGAACACTGCGGTCGGGGCGAGGGAGCTGCCGGGGA
DNA 2: TCCCCGGCAGCTCCCTCGCCCCGACCGCAGTGTTCC
Q: Which binding signal does the source give for B25 here?
A: 4100 PBM fluorescence, median of replicate spots

B26: Table S3 B row 2109 (dsDNA)
DNA 1: ATGTCAGTAACCACAAACGAGCCACAGCATAAGAAC
DNA 2: GTTCTTATGCTGTGGCTCGTTTGTGGTTACTGACAT
Q: B26 was tested. Which binding signal did it give?
A: 5490 PBM fluorescence, median of replicate spots

B27: Table S3 B row 1304 (dsDNA)
DNA 1: TCTGCTGCTTCTGTGGTTTACGGAATTTGTAACCCT
DNA 2: AGGGTTACAAATTCCGTAAACCACAGAAGCAGCAGA
Q: For B27, which binding signal is on record?
A: 5370 PBM fluorescence, median of replicate spots

B28: Table S3 B row 2419 (dsDNA)
DNA 1: GGCTACAGCAACCGCAAGGCATCACGGAGGTCGTAG
DNA 2: CTACGACCTCCGTGATGCCTTGCGGTTGCTGTAGCC
Q: Which binding signal does the source give for B28 here?
A: 5220 PBM fluorescence, median of replicate spots

B29: Table S3 B row 1984 (dsDNA)
DNA 1: TAAAACCAAACCACAGATGACACATTGCCTTTCCAC
DNA 2: GTGGAAAGGCAATGTGTCATCTGTGGTTTGGTTTTA
Q: With B29 as the binder, how does the binding signal read?
A: 2350 PBM fluorescence, median of replicate spots

B30: Table S3 B row 244 (dsDNA)
DNA 1: GGTCTTTTCTGTGGTTCTGTCACCTCCTTTGTAAGT
DNA 2: ACTTACAAAGGAGGTGACAGAACCACAGAAAAGACC
Q: Which binding signal does the source give for B30 here?
A: 2300 PBM fluorescence, median of replicate spots

B31: Table S3 B row 1118 (dsDNA)
DNA 1: CTCCCACCATCCACCGCAGCCACTTTCGCCCGTCCT
DNA 2: AGGACGGGCGAAAGTGGCTGCGGTGGATGGTGGGAG
Q: With B31 as the binder, how does the binding signal read?
A: 3290 PBM fluorescence, median of replicate spots

B32: Table S3 B row 1676 (dsDNA)
DNA 1: GTAAAATGCGGTCGGGTAGAAACCTACTTTCGGTCC
DNA 2: GGACCGAAAGTAGGTTTCTACCCGACCGCATTTTAC
Q: B32 was tested. Which binding signal did it give?
A: 2480 PBM fluorescence, median of replicate spots

B33: Table S3 B row 708 (dsDNA)
DNA 1: CTCCTGCGGTTGCCAGGCAACCGGCCCCGGGAGTTG
DNA 2: CAACTCCCGGGGCCGGTTGCCTGGCAACCGCAGGAG
Q: With B33 as the binder, how does the binding signal read?
A: 3720 PBM fluorescence, median of replicate spots

B34: Table S3 B row 1939 (dsDNA)
DNA 1: TTGGTTCTGTGGTTTCAGGTGTGAGTTCCAGTGTGC
DNA 2: GCACACTGGAACTCACACCTGAAACCACAGAACCAA
Q: Which binding signal does the source give for B34 here?
A: 2910 PBM fluorescence, median of replicate spots

B35: Table S3 B row 3999 (dsDNA)
DNA 1: ATGGAAATGTGGTTAAGAACTCCCTCTTTTACTAGA
DNA 2: TCTAGTAAAAGAGGGAGTTCTTAACCACATTTCCAT
Q: With B35 as the binder, how does the binding signal read?
A: 2760 PBM fluorescence, median of replicate spots

B36: Table S3 B row 1484 (dsDNA)
DNA 1: GTGAAGACCGCAAGTTGGGGCAGATGGCTCCCGACT
DNA 2: AGTCGGGAGCCATCTGCCCCAACTTGCGGTCTTCAC
Q: Which binding signal does the source give for B36 here?
A: 3440 PBM fluorescence, median of replicate spots

B37: Table S3 B row 2890 (dsDNA)
DNA 1: CGGTCTGACCACAAACTCTGCCTTACGGCAAGGCTG
DNA 2: CAGCCTTGCCGTAAGGCAGAGTTTGTGGTCAGACCG
Q: Which binding signal does the source give for B37 here?
A: 5700 PBM fluorescence, median of replicate spots

B38: Table S3 B row 646 (dsDNA)
DNA 1: GCTCAAACAATAACCACAACACTTCATGCCTCTCTC
DNA 2: GAGAGAGGCATGAAGTGTTGTGGTTATTGTTTGAGC
Q: How did the binding signal turn out when B38 was run?
A: 5040 PBM fluorescence, median of replicate spots

B39: Table S3 B row 2861 (dsDNA)
DNA 1: ACGATCCAACCGCATTCACCCCGTAAGCCGCTTCCA
DNA 2: TGGAAGCGGCTTACGGGGTGAATGCGGTTGGATCGT
Q: With B39 as the binder, how does the binding signal read?
A: 4500 PBM fluorescence, median of replicate spots

B40: Table S3 B row 1215 (dsDNA)
DNA 1: ACAGAGAAACCACAGCCCTGAGCCTCTTCATGACAT
DNA 2: ATGTCATGAAGAGGCTCAGGGCTGTGGTTTCTCTGT
Q: With B40 as the binder, how does the binding signal read?
A: 4430 PBM fluorescence, median of replicate spots

B41: Table S3 B row 1595 (dsDNA)
DNA 1: CAGTAGGCTGCGGTTGCGCGCGCCGGGTGTGGGCCC
DNA 2: GGGCCCACACCCGGCGCGCGCAACCGCAGCCTACTG
Q: How did the binding signal turn out when B41 was run?
A: 5670 PBM fluorescence, median of replicate spots

B42: Table S3 B row 3915 (dsDNA)
DNA 1: CACCTGACCACAAGGCACACGAAGATCCTTATCACA
DNA 2: TGTGATAAGGATCTTCGTGTGCCTTGTGGTCAGGTG
Q: With B42 as the binder, how does the binding signal read?
A: 5610 PBM fluorescence, median of replicate spots

B43: Table S3 B row 2767 (dsDNA)
DNA 1: CTTGCGGTCCCATCTTGCTTTTTTCTTGCGCTTTCC
DNA 2: GGAAAGCGCAAGAAAAAAGCAAGATGGGACCGCAAG
Q: How did the binding signal turn out when B43 was run?
A: 2370 PBM fluorescence, median of replicate spots

B44: Table S3 B row 2125 (dsDNA)
DNA 1: CAGGCTGCGGTTGAAATGCATCAGCTCTTTCGTGCC
DNA 2: GGCACGAAAGAGCTGATGCATTTCAACCGCAGCCTG
Q: For B44, which binding signal is on record?
A: 4740 PBM fluorescence, median of replicate spots

B45: Table S3 B row 1822 (dsDNA)
DNA 1: TCCTATTTTTACCGCAGTTGCACAGGCAATGAGGCG
DNA 2: CGCCTCATTGCCTGTGCAACTGCGGTAAAAATAGGA
Q: How did the binding signal turn out when B45 was run?
A: 3180 PBM fluorescence, median of replicate spots
